Data from patent US20100087005A1, “AUXILIARY REAGENT FOR GENE TRANSFER” (priority 2006, published 2010).

Tested on: transgenic mice overexpressing full-length Del-1
Test: In vivo gene transfer of human thermostable alkaline phosphatase gene (TransIT In Vivo Gene Delivery System) in Del-1 transgenic mice, serum AP activity
Set-up: species or system mouse
Conditions: tail vein injection of human thermostable alkaline phosphatase gene, serum 24 hours later, heat treated 65° C. 30 minutes, FIG. 5
Procedure: According to the ordinary method, transgenic mice in which cDNA of full-length Del-1 (i.e., DNA consisting of the nucleotide sequence represented by SEQ ID NO: 9) is overexpressed were prepared (see Hidai et al., Anatomical Record A, vol. 287A, pp. 1165-1175). Del-1 protein produced in cells of the transgenic mice is a protein having the amino acid sequence represented by SEQ ID NO: 10 (including the signal peptide). Del-1 protein secreted from the cells to the outside thereof is a protein having an amino acid sequence consisting of amino acid residues at positions 26 to 480 in the amino acid sequence represented by SEQ ID NO: 10 (excluding the signal peptide). […] Using 20 μl of serum after the heat treatment, the activity of exogenous alkaline phosphatase (human thermostable alkaline phosphatase) was measured. In the measurement of the activity, 20 μl of serum was mixed with 200 μl of 1 mg/ml p-nitrophenyl phosphate, and after causing reaction at room temperature for 30 minutes to 1 hour, the absorbance at 405 nm was measured using a […] (BioRad). […]
Measurement values of the alkaline phosphatase activity are expressed by average value±SEM (standard error of the mean). The measurement values obtained from the control group into which alkaline phosphatase gene was not injected are regarded as 1, and the measurement values of the transgenic mice were calculated based thereon.

B1: full-length Del-1: Del-1 protein, SEQ ID NO: 10, overexpressed in transgenic mice; secreted form residues 26 to 480 (protein, listed as Mus musculus)
chain: MKHLVAAWLLVGLSLGVPQFGKGDICNPNPCENGGICLSGLADDSFSCECPEGFAGPNCSSVVEVASDEEKPTSAGPCIPNPCHNGGTCEISEAYRGDTFIGYVCKCPRGFNGIHCQHNINECEAEPCRNGGICTDLVANYSCECPGEFMGRNCQYKCSGPLGIEGGIISNQQITASSTHRALFGLRKWYPYYARLNKKGLINAWTAAENDRWPWIQINLQRKMRVTGVITQGAKRIGSPEYIKSYKIAYSNDGKTWAMYKVKGTNEEMVFRGNVDNNTPYANSFTPPIKAQYVRLYPQICRRHCTLRMELLGCELSGCSEPLGMKSGHIQDYQITASSVFRTLNMDMFTWEPRKARLDKQGKVNAWTSGHNDQSQWLQVDLLVPTKVTGIITQGAKDFGHVQFVGSYKLAYSNDGEHWMVHQDEKQRKDKVFQGNFDNDTHRKNVIDPPIYARFIRILPWSWYGRITLRSELLGCAEEE
exogenous alkaline phosphatase activity in serum, transgenic mouse (TG) vs wild-type mouse (WT): about twice as high as that of the wild-type mouse (WT)
